Where “and” joins values, the source holds several entries; their conditions need not be identical. Equal entries are not always repeated. Values belong to the molecule of their own block, whether it stands above or below them.
Columns and labels:
[1] = target: C-terminal multimerization domain of AbrB (AbrBC), residues 54-94 (B. subtilis); assay: SEC
[2] = target: T1, N-terminal DNA-binding domain of AbrB (AbrBN), residues 1-53 (B. subtilis); assay: AUC
T1 sequence (P08874 whole entry, looked up): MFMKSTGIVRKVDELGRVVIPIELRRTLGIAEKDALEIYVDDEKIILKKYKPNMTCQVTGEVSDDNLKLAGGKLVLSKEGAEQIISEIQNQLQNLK

[3] = target: T1, N-terminal DNA-binding domain of AbrB (AbrBN), residues 1-53 (B. subtilis); assay: SEC
[4] = target: T2, Full-length AbrB from B. subtilis (B. subtilis, UniProt P08874 1-96); assay: ITC
T2 sequence (looked up): T1 sequence (P08874 whole entry, looked up)

SEC = target: the molecule itself; assay: SEC

stoichiometry N [1]: 2
Molecule: C-terminal multimerization domain of AbrB (AbrBC), residues 54-94 (domain or fragment)

stoichiometry N [2]: 2 | stoichiometry N [3]: 2
Molecule: N-terminal DNA-binding domain of AbrB (AbrBN), residues 1-53 (domain or fragment)

Kd [4]: 16 nM and 11 to 21 nM | stoichiometry N [4]: 0.868 to 0.969 (2×) and 0.918 | stoichiometry N (AbbA chains per AbrBN chain (2:2)) [2]: 1
B1: AbbA (anti-repressor protein AbbA from B. subtilis), histidine tag removed (natural protein, UniProt O31697 1-65, looked up)
chain: MRMSLIGERFTEEEQKLLLNILINHEYAIELLSSEINDIETGTKNVDGTTYKKLVTLYDRFRFEN
stoichiometry N (SEC): 2

Reference: article PMC4017629 (Journal of molecular biology, 2014)
